From the supplement of paper PMC9170038

System: K4 kissing-loop RNA reporter
Experiment: apparent KD of K4 kissing-loop reporter; higher = weaker reporter binding
Settings: Eterna round: R107
Procedure: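 RNA-MaP round R107: designed RNA switches with theophylline, tryptophan, arginine or FMN aptamers are transcribed on-chip within common flanks. They are titrated with a labelled K4 kissing-loop RNA reporter in RNA-MaP buffer (100 mM Tris pH 7.5, 80 mM KCl, 4 mM MgCl2), without ligand or with the indicated ligand. Median apparent KD per design.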

[1] = input ligand: theophylline 20 uM
[2] = input ligand: tryptophan 2.4 mM
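Further: bound reporter read as fluorescence of individual clusters on recovered sequencing chips by microscopy, with normalized cluster intensities fitted with a binding model.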

Sequence	apparent KD of K4 kissing-loop reporter (input ligand: FMN 200 uM) [µM]	apparent KD of K4 kissing-loop reporter (input ligand: arginine 13.2 mM) [µM]	apparent KD of K4 kissing-loop reporter (input ligand: none) [µM]	apparent KD of K4 kissing-loop reporter [1] [µM]	apparent KD of K4 kissing-loop reporter [2] [µM]
AAUAAGGUCGCCGAUACCAGCGCAGGCAGAGCAAAGCUCUGCCUAGUAGUGAUGUUACUGCGCCCUUGGCAGCGGUGGCACGACC [Omei KL Theo B SS C v4]	0.863	0.824	0.93	0.397	0.798
AAUAAGGUCGCCGAUACCAGCGCGGGCAGAGCAAAGCUCUGCCCGGCAGUGAUGUUGCCGCGCCCUUGGCAGCGGUGGCACGACC [Omei KL Theo B SS C v7]	0.166	0.0484	0.0472	0.216	0.0558
AAUAAUCUAGGUGAUACCAGCUCAACAUGAGUGAUGUUCAUGAACUAAUGUAGAGUUGAGAGCCCUUGGCAGCACCUAGAUAAUA [KL-SSTheoB6]	0.873	0.792	0.966	0.458	0.962
AAUAAUUUCAGAGGAUAUGCUUUAUUAUGAUUUUUAAAUAAUAAAUGCAGUGAUGUUGCUUAUUAUGCAGAAGGCUGAUUUAUAA [JR_SSFMNB_Sub015]	0.143	0.727	0.747	0.721	0.565
AAUACCUGAGUGAUGUUCAGGGAAUCAGAAGGAGCGUCAAUUAUGACAGGUAGGUCGCUGAAUACAUGUGUGUAUACACAUGUAC [Arg A SS t4]	0.217	0.189	0.278	0.243	0.229
AAUAGGGAUAGUGAUGUUAUCCCUUAUGAUACCAGUGCCAUCGGACACCCUUGGCAGCAUACGGGCAGUGAUGUUGUUCUUGGAG [Exclusion Theophylline A GF 15]	0.103	0.0755	0.0786	0.0765	0.0793
AAUCACCGAGCGGCCGCCACUGCACAAAGCGAGUUUAUAGACACGGUACUGGAGUGAUGUUCGAGCAGGACCGGGCUAACUAAGC [theeternabot_sameState_KL_Trp_B_12]	0.871	0.61	1.19	0.758	0.729
AAUGGCGAGUGAUGUUCGCCCACCAAUGAUACCAGUGCCAUCGGACACCCUUGGCAGCAUACGGGCAGUGAUGUUGCUCUUGGAA [Exclusion Theophylline A GF 26]	0.185	0.181	0.193	0.2	0.177
AAUUAAUACAGAAGGAGCGUGAAAUUAUCUACUUUUAACUUAGCGAGUGAUGUUCGUUUUUCACAGGUAGGUCGCUGUAUAUUUA [JR_ExcArginiB_Sub009]	0.167	0.214	0.194	0.192	0.152
AAUUCAAACUGAAGGAGCGAGCAUUUUGGAGUGAUGUUCCAAGCGAGUGAUGUUCGCAUAGCUCAGGUAGGUCGCAGUUUGGAUA [Same State Arginie B GF 14]	0.143	0.136	0.144	0.143	0.139
AAUUCAGUGAUGUUGGAAGGCAGGCGGGAUACCAGCGGAGAAUAACGCCCUUGGCAGCCCAUAUAUCCCAAAUAGAUAAUAGUUC [Same State - Theophylline A (Freestyle 3)]	0.386	0.317	0.41	0.405	0.376
AAUUCUUAUCUUAGUUGAUUUCUAAUUAAACGAGGACCGGUACGGCCGCCACUCGGUUAUGAGUGAUGUUCAUGGAAUUACAUAA [JR_SSTryptoA_Sub019]	0.407	0.601	0.515	0.791	0.169
AAUUUAGUGACGGCCGCCACUAGGGUGAUUUAUUUGUUUGAGUGAUGUUUUGAUGUUUGAUUUUGUAGGACCGGGUUAGGUGAUG [dddcmullin]	0.354	0.304	0.363	0.326	0.271
AAUUUAUUAUCUGAUACCAGACUUUAUCUUGUUUAUAAGUCAAGUGAUGUUUGACUAUUAGUCCCUUGGCAGCAGUAUUUUUUAA [JR_Nu_SSTheophyB_Sub025]	0.251	0.26	0.269	0.187	0.23
AAUUUAUUAUCUGAUACCAGACUUUUUCUUGUAUAUAAGUCAAGUGAUGUUUGACUUUUAGUCCCUUGGCAGCAGUAUUUUUUAA [JR_Nu_SSTheophyB_Sub027]	0.165	0.149	0.168	0.123	0.155
ACACUAUCGUCAUAGACGGUAGUGAAAUCACAGGAUAUAAGUGAUGUUAGAAGGGUGAAAGACUGUAUCGAAUAGAUACAGUCAA [FmnA 3 #K4BetweenAptamer #OpenEnded]	1.14	0.605	0.913	0.861	0.878
ACAGGAUCGAAGAUCCUGAGCAGUCAAAACCGAGGACCGGUACGGCCGCCACUCGGAGUGAUGUUCCGAAGACUGCAAAAUAAAA [#SwitchBubble 3]	1.09	0.76	1.01	1.01	0.692
ACAGUUGCUAGUGAUACCAGACUAGCACUACGUAGUAUGUCAAGUGAUGUUUGACAACUAGUCCCUUGGCAGCGCGAUACGACUG [#12 K4 Theophylline B Same State]	0.181	0.152	0.17	0.136	0.169
ACAUAGGAUGGAAGGAGCGCUCGUCAGUCCUGCGAGUGAUGUUCGUGGGUAAAUAUUCGCGAGCAGGUAGGUCGCCAUCUUGAAA [Vedi]	0.109	0.115	0.158	0.177	0.164
ACCAAUUUACCGGCAGUAGUGAUGUUACUCCGAGGACCGGUACGGCCGCCACUCGCGAACGUAGGGUUUCUGACUCGAAGAGUCU	0.191	0.127	0.171	0.149	0.171
ACCACCUGUCUGGAUACCAGUCUUCGAGUGAUGUUGGAAGUUAGCCGGUUCUAUUACCUAGACCCUUGGCAGCCAGGAAUUAUAG [theeternabot_exclusion_KL_Theo_B_17]	1.14	0.861	1.5	1.13	0.872
